Test: label from the status in PepcDB records

| Sequence | protein production |
| --- | --- |
| MDIGFLVFGLAGLLTLVCFMPPLAGRLKLPYSVLLALVGCLLGIGVHLHGWAPPVLGDLLDTIEHFEISSETFLMVFLPVLLFETALSMNVRRLIDDIGPILMMAIVAVVVCTLVVGFAVDAVSSYGLIVCLLLGAIVATTDPAAVVGIFREVGAPKRLTTLVEGESLFNDAASIALYSVLLAALGGSGELSVGAVFNDFIFHFVGGGLAGFLMGRLACALFAWLRGFPTAEITLTLTLAYLSFFISEHYLGVSGVVATVIAGLVVGSTGRTRMSPTTFEFLSSAWGQFGFWANSLIFLFAAMLIPKLMAEADWQELLLVLVVFAATLAARAIVVFGLLPLLRVARIGAEVSNPYKSVMWWGGLRGAVSLALALAVTEQSSVPEQARQFVAVATTGFVLMTLMINGVSLRPLIRMLGLNQLSPVERTIRNQVLAAALEDLQGRTEEIAKVDHVNPEARDRIRAVFDASLTSVHDGQVGQMTLDQRVAVGLSIVARREEEMFFDILKAQIVDWRLAEGLLARAERLEDAVRAGGLAGFEAGIVADVRYSRLFRMALRTHYMFGFQGWLARELGKRFASLLTKRSVARDLMKFAREQVAPLLGEEAADRIIAAHQRRLDLIENALQALTLQYPSYSLWLQESHLGRVARELERRRYRDMLEQFLISGEVYADLMAQLKARWQHIDKHPPLDIELGSAELVKRVPLFEGLSQDSLRAICRLLKPRLALPDQHILTEGRHGQEMCIVASGAVVVHLPDHTTIELGSGEFFGELALLGEEQLVPDVTSLGYSKLLMLSARDFHALLARDEHLRERIQTVAKQRMRAIEVWKQYSQAAAAAAASTASEDSAPA | failed |
| MDIKELKEIATKSREKQTKIRIRCCSAAGCLSSEGETVKKNLTTAIAAAGLEEKVEVCGVGCMKFCGRGPLVAVDDRNQLYEFVTPDQVGDIVKKLQKPDAVAETGLISGDPHHPFY | failed |
| MDILKSEILRKRQLVEDRNLLVENKKYFKRSELAKKEEEAYFERCGYKIQPKEEDQKPLTSSNPVLELELAEEKLPMTLSRQEVIRRLRERGEPIRLFGETDYDAFQRLRKIEILTPEVNKGLRNDLKAALDKIDQQYLNEIVGGQEPGEEDTQNDLKVHEENTTIEELEALGESLGKGDDHKDMDIITKFLKFLLGVWAKELNAREDYVKRSVQGKLNSATQKQTESYLRPLFRKLRKRNLPADIKESITDIIKFMLQREYVKANDAYLQMAIGNAPWPIGVTMVGIHARTGREKIFSKHVAHVLNDETQRKYIQGLKRLMTICQKHFPTDPSKCVEYNAL | failed |
| MDIRTITSSDYEMVTSVLNEWWGGRQLKEKLPRLFFEHFQDTSFITSEHNSMTGFLIGFQSQSDPETAYIHFSGVHPDFRKMQIGKQLYDVFIETVKQRGCTRVKCVTSPVNKVSIAYHTKLGFDIEKGTKTVNGISVFANYDGPGQDRVLFVKNI | not failed |
| MDISMKQSKRNLWWSVCAGLLFCSWGCSSQVSDKPVTLETLLDEMVSVEEQALYPVPSYTCRQESSYDRASVSPDSAGWFANSDGFGIKRVDTVAGRIEKVMFDEVGPGAITRIWITTIDKRGTWRFYFDGSDQPGWIIPAYDLMRINVPGLGKGMLQAHTSYTPEGKGGNTLFLPIPYARGCKVTFEDEPGVNPTPKYYHINFRKYPEGTQVETFSKEVVERAAQKIAEVDNRLLQPVAGRKGEILREEKSILPSDSLVIPLPAGENAVYEVKFNIRIDNPEQYAQLMRELVFSAGFDGKQTVWVPLSDFSGGGMGAPKVDSWYLTSDGKGNISSRWLMPYQKDGVLKVLNLSSRSVAATMEVNVAPLKWNKDRSLYFYASWRQENGIYIHDKPEEADQCVEWNFATLKGRGVYKGDLLSLYNHAPLWYGEGDEKIWVDDDTFPSHFGTGTEDYYNSSWAPVVPFYTPFGGAPRADLESSHGYNAFYRTRHLDGIPFNKSFKFDIEMLGWKRGEADYATTIYWYGDPEAQVFGTSGIEEARRQLLPAVEASADLEHHHHHH | not failed |
| MDISSTEIWDAIRRNSFLLYYQPKVDAKTNELIGFEGLIRLKTATAILAPADFFEDIALLNATREMQDFVAETAIEQINQLGGRFSISINIPAHYVVSSNYMTFLYDYVKEHLKYPECLEIEIIERGEITELAVADKNLRKIKKLGVTVSMDDFGKGYSSLAYLRSLPIDIVKTDMSFIALLKTDRKQQIIIQAIVNLCHDLGGKVVTEGVEDIEQVKTLREMKVDYFQGYYFSRPLPMKEIKEKYSIV | failed |
| MDITNIKEMNYEEVFSITITVDKPILIGQDDIVGRRQLIPIISGKVSGNNFNGKVLPGGIDSQIVRPDGKCELSARYAIRLDDGAAIYIENNGIRTVPDEYIEAVKSGEFVDPNAYYFRTIPTFETYSPKYKWMMNHIFVCCASRLPENVLLKFYKIS | not failed |
| MDIVISGGTGLIGRAITEIQGNTYNVITRGPSRTDGNINLVNWNDLRKIRHCDVVINLAGYNIGSKRWNPKIKEEIIRSRIESTRRMVEFISSLDSKPEAFLSGSAIGYYGYGENTVFDENSPPGTGFLAELANAWEDEALKASRYTRTVILRTSNVLSSSGGFLARIMNSRSRRVYYFGDGDQPVSWIHIKDYVNAVKFLMENKDISGPVNMAAPSPVSFADLAHAIAREKGYKEMKIPEFIGKLILGSEMYRELMSGQRVAPKKLTGSGFSFQYPDLESAIKNLLEHHHHHH | failed |
| MDIVLIGGLWLNGSVWEGVASTLESLGHRPVPLTLPGQGDGAATATLDDQVAAVLAAVDAAPGRPMVVGHSAACALAWLAADRRPGRLAKVALIGGIPTPDGRPYADFFEVRDGVMPFPGWEPFQGPDAADLDEAARHELAAAAIPVPEAVARGVVRLSDERRYDVPVVVVCPEFTPAQARGWIDAGDVPELARAKHVDFADIDSGHWPMITKPAELARVLAAAAEGN | failed |
| MDIVSVALQRYSTKAFDPSKKLTAEEADKIKTLLQYSPSSTNSQPWHFIVASTEEGKARVAKSAAGNYTFNERKMLDASHVVVFCAKTAMDDAWLERVVDQEDADGRFATPEAKAANDKGRRFFADMHRVSLKDDHQWMAKQVYLNVGNFLLGVAAMGLDAVPIEGFDAEVLDAEFGLKEKGYTSLVVVPVGHHSVEDFNAGLPKSRLPLETTLTEV | not failed |
| MDKALTNHVIILSFDCLSALDFPILQKLPHFQSLIKKGTVVEKVEPIYPSVTYPSHSTIVTGNYPNKHGVVSNTLLQPGRESPDWHWYRKSIKGTTLYDEARKANLTTAALLWPVTGRANIDYNLPEIFPNRPWQNQVLVSLFSGSPLYQLDLNRRFGHIRNGLSQPELDDFVLASAVHTIQTKKPNIMFVHFTDLDTQRHYHGFESNETIAAIQRHDERLGKIIQALKESDLYEESTIIALGDHSALSENKSIQLNVLFHQRGLISLNKKRKLVDWKAYCQSCDGSAYVYVKDKNDTDTIREVQLLLEELLQNKQNGIEFILHDEAAKDCGADGNCLFMLEAREGYYFTENYTGDFIKEITEKDVTLSKKYTFGTHGYSPTKPNYETIFIAAGKGIKSGVTVPYMRLIDEGPTIARLLGLHLGETDGAIVEDLLQLLEHHHHHH | not failed |
| MDKESTKWIRFLGGKNLLYTLTILCLIAVTIFLFNTVSFIFKPIFVIFSAVLGPVLFGIILFYLLNPMVKRLEKKIPRVWAIAILYVLIIALLVLAGLQLFPIIQDQTEELIKQFPSFWKSTLQTVQEFMAKTPFAKDLESANESINQLWGKLANSFKDFAGDYLQTGAQGLGSVFSAVSSTFLTLFTGPIIAFFLLKDKEKFYRFVKGIIPPAFRPDFDEYSQIANIQIGDYLKGQVIASLVLGIMYWPAFLLIGLQFGSILALAAGILCIIPYIGPFIAFIPGLIIAFQDSTFMVVKFVIVWFAIQLIHGDFVIPRVMGDKLKVHPITILLVLLVMGELFGLMGVIFGIPMYCLVKVTVIYLFRKFKQRYNRFYGDNGEYEHTNFTKDQYLK | failed |
| MDKKYDITAVLNEDSSMTAISDQFQITLDARPKHTAKGFGPLAALLSGLAACELATANLMAPAKMITINKLLMNVTGSRSTNPTDGYFGLREINLHWEIHSPNSETEIKEFIDFVSKRCPAHNTLQGVSQLKINVNVTLVH | not failed |
| MDKNILAIIFVAVGTYLIRYIPIHLHSKIKNIDEKVKEINEILIYSSTSVISALFITSFIKFPIIFSNVLISTISLIFAIVSYKKWNNLGISILISVVIYYLASKFLISI | failed |
| MDKVSIIIPVYNVQSFLNECIESVLAQTYSNLEIILVNDGSTDNSGDICDYYSEIDGRIFVFHKNNGGLSDARNYGISRATGDYIYLLDSDDYLYKEDAIERMVEFSEKYNSEIVLGCYVEKREQHIINIVLEDEMIETISPVQAIQNIYNYDAYRAIFTVAHNKLYKRELFSTLCYPVGKLHEDEFLTYKLYLKAKNIIFFRYNTYAYRIRENSIMTGSYNIKRLHAVEALKERIYLLEKYPDLVFQSERALIKTMEVNLIELYKNNFYKEFHTLKTEYKKTIFDFIKKQRMLLKIKYYLKYCVVHFKILNCKRKKKINKLEHHHHHH | not failed |
| MDKYLRLLSQGDRLGLTLIRLSIAIVFIWIGLLKFVPYEADSITPFVANSPFMSFFYEHPEEYRQHLTHEGELKPEERAWQTANNTYAFSDGLGVVELIIAALVLANPVSRWLGLAGGVLAFLTPFVTLSFLITTPEVWVMPLGDAHYGFPYLSGAGRLVLKDTLMLAGAVMIMADSARSLLLQRQ | failed |
| MDKYRLLLLGGGRGLFDIDEDFMHWIDEFIEEHSNSIEITIVTGKNKKLYDNLTHKKPLKNIKVLGFVNDMYNLIRECDLMLTKPGGATIFEAIQSQTPVLVKMPKVGQEIENAKFIIDKGLGMIYSDDLDLKNIFYKLVSNEFDSIINFMKKNLKEFKTVIHPEKIADYISELIDNHLEHHHHHH | failed |
| MDLDLRKLRYFVAVADRLHFGRAADALHIAQPALSRQIRALEQDLGASLFTRDSHGVTLTDAGRQLLDDAGPLLASAHAVRRRVSVAERGGRRLVVGFRAGIPVIPATRVFEAQHPDVVVDVQRMEWDDQASMLLDGRVDVAYVRLPLAETGLRLAPLYTEPLMVALPAGHRLAGKDEVTEADLAGEPLIWHADASRQPTRRPHPDSGLRVRGVEEKLEHVAAGRGISFVGRSEAVFFSRPDISYVPVPDLAPDQVCVAMAASRTSPLADSFFAAAQTTAEITAECGNYEMWRLASDAASKRD | failed |
| MDLESVKKYLEGDEDEKAKEPMVAKLPHRFLERFVTNGLKVDLIEPGRIVCSMKIPPHLLNAGKFLHGGATATLVDLIGSAVIYTAGASHSGVSVEINVSYLDAAFLDEEIEIESKALRVGKAVAVVSVELRKKTTGKIIAQGRHTKYFAPRSNL | failed |
| MDLKEIVQAGAFDLHIHTTASDGEYSPTAIVKKAKEIGLRTIAITDHDTLDGIEEAVIAGKRHGINVIPAIELTTKYKGTNVDILGYNVKASEKLQAILVQLKKHREGRAMQIIEKFNDIGFTITLDEVKQFSEDGVIARPHIAKAIVKKGYVLDYQTVFDEYLADGKPCAIDKMILTPEEGIKLIHEAGGKAILAHPVYLEDTLVRELLALDFDGIEVWHRNHDETDQEKYKMLATEFALIKTGGSDFHTDEHSLGQFGWKADEE | failed |
| MDLLLFSDVHGDREACQRLVDRAADVDVVVGAGDFCVARRNLQAPIETLSAIDTPTVLVPGNAETEDELEAQIDAAGWGAAHVLHGGGTTIDGTPFFGLGGGVPVTPFGPWSYDLTEDEARTLLSDCPEGAVLVAHSPPKDAVDRDSKGQSLGSVAVREAIEAHTPRLTVCGHIHGSWEETAHVGPTPVHNAGPHGRIWTLSEADGA | failed |
| MDLPITLSKETPFEGEEITVSARVTNRGAAEAHNVPVAVYLGNPAQGGVEIGRDTISRIPVGGTGLARVQWKATRKLAGRAANPGVPVYAVVDPDNRVAESDKANLEHHHHHH | not failed |

From a protein production outcome set (Wang et al. 2014)
